From the Immune Epitope Database (IEDB)

Assays:
HLA-A*24:03 [1] = assay: IEDB peptide-MHC binding, purified MHC/competitive/fluorescence; filed as Kd, often an IC50 or EC50 that approximates it; ≥ and ≤ were set here for values at or beyond the usual limits of such assays
HLA-B*08:01 [2] = assay: IEDB peptide-MHC binding, purified MHC/competitive/fluorescence; ≥ and ≤ were set here for values at or beyond the usual limits of such assays; conditions: source organism: Sudan ebolavirus
HLA-A*02:01 [3] = assay: as above; conditions: source organism: Sudan ebolavirus
HLA-A*26:01 = assay: IEDB peptide-MHC binding, purified MHC/competitive/fluorescence; filed as Kd, often an IC50 or EC50 that approximates it; ≥ and ≤ were set here for values at or beyond the usual limits of such assays
HLA-B*15:17 [4] = assay: as above
HLA-B*51:01 = assay: as above
HLA-B*57:01 [5] = assay: as above
HLA-B*27:03 = assay: as above
HLA-A*69:01 [6] = assay: as above
HLA-B*15:01 [7] = assay: as above
HLA-B*46:01 [8] = assay: as above
HLA-B*18:01 [9] = assay: as above
HLA-A*24:03 [10] = assay: IEDB peptide-MHC binding, purified MHC/direct/fluorescence; filed as Kd, often an IC50 or EC50 that approximates it; ≥ and ≤ were set here for values at or beyond the usual limits of such assays
HLA-A*23:01 = assay: as above
HLA-A*03:01 = assay: as above
HLA-A*29:02 = assay: as above
HLA-A*02:01 [11] = assay: as above
HLA-B*39:01 = assay: IEDB peptide-MHC binding, purified MHC/competitive/fluorescence; filed as Kd, often an IC50 or EC50 that approximates it; ≥ and ≤ were set here for values at or beyond the usual limits of such assays
HLA-B*58:01 [12] = assay: as above
HLA-A*02:01 [13] = assay: as above
HLA-A*02:19 = assay: IEDB peptide-MHC binding, purified MHC/direct/fluorescence; filed as Kd, often an IC50 or EC50 that approximates it; ≥ and ≤ were set here for values at or beyond the usual limits of such assays
HLA-A*02:03 = assay: as above
HLA-A*02:12 = assay: as above
HLA-A*68:02 = assay: as above
HLA-C*12:03 = assay: as above; conditions: source organism: Zaire ebolavirus
HLA-A*02:16 = assay: as above
HLA-B*15:01 [14] = assay: as above; conditions: source organism: Nitrococcus mobilis Nb-231
HLA-A*02:11 = assay: as above; conditions: source organism: Zaire ebolavirus
HLA-A*69:01 [15] = assay: as above
HLA-A*11:01 = assay: IEDB peptide-MHC binding, purified MHC/competitive/fluorescence; filed as Kd, often an IC50 or EC50 that approximates it; ≥ and ≤ were set here for values at or beyond the usual limits of such assays; conditions: source organism: Bacillus anthracis str. A0389
HLA-B*40:01 = assay: IEDB peptide-MHC binding, purified MHC/direct/fluorescence; filed as Kd, often an IC50 or EC50 that approximates it; ≥ and ≤ were set here for values at or beyond the usual limits of such assays; conditions: source organism: Bacillus anthracis
HLA-B*08:01 [16] = assay: as above; conditions: source organism: Bacillus cereus 03BB108
HLA-A*01:01 = assay: as above; conditions: source organism: Bacillus anthracis
HLA-B*15:17 [17] = assay: as above; conditions: source organism: Bacillus anthracis
HLA-B*48:01 = assay: as above; conditions: source organism: Bacillus anthracis
HLA-B*58:01 [18] = assay: as above; conditions: source organism: Bacillus anthracis
HLA-B*57:01 [19] = assay: as above; conditions: source organism: Bacillus anthracis
HLA-B*27:05 = assay: as above; conditions: source organism: Bacillus anthracis
HLA-A*31:01 = assay: as above; conditions: source organism: Bacillus anthracis
HLA-B*46:01 [20] = assay: as above; conditions: source organism: Bacillus anthracis
HLA-B*18:01 [21] = assay: as above; conditions: source organism: Bacillus anthracis
[22] = source organism: Zaire ebolavirus
[23] = source organism: Rickettsia felis URRWXCal2
[24] = source organism: Four Corners hantavirus
[25] = source organism: Limestone Canyon virus
[26] = source organism: Araucaria virus
[27] = source organism: Rickettsia sibirica 246
[28] = source organism: Bacillus anthracis

CYPYDVPDY
0.223 µM: Kd (HLA-A*24:03 [1]; source organism: Influenza A virus)

FLYDRLAST
0.0022 µM: Kd (HLA-A*02:01 [11]; [22])
≥ 20 µM: Kd (HLA-A*26:01; [22]) | Kd (HLA-B*15:17 [4]; [22]) | Kd (HLA-B*51:01; [22]) | Kd (HLA-B*57:01 [5]; [22]) | Kd (HLA-B*27:03; [22]) | Kd (HLA-A*69:01 [6]; [22]) | Kd (HLA-B*15:01 [7]; [22]) | Kd (HLA-B*46:01 [8]; [22]) | Kd (HLA-B*18:01 [9]; [22]) | Kd (HLA-A*24:03 [10]; [22]) | Kd (HLA-A*23:01; [22]) | Kd (HLA-A*03:01; [22]) | Kd (HLA-A*29:02; [22])
0.887 µM: IC50 (HLA-A*02:01 [3])
40.6 µM: IC50 (HLA-B*08:01 [2])

GYTVARSQL
0.466 µM: Kd (HLA-A*23:01; [23])
0.022 µM: Kd (HLA-A*24:03 [10]; [23])

IMYDHLPGF
0.0731 µM: Kd (HLA-B*58:01 [12]; [22])
≥ 20 µM: Kd (HLA-A*26:01; [22]) | Kd (HLA-B*39:01; [22]) | Kd (HLA-B*57:01 [5]; [22]) | Kd (HLA-B*27:03; [22]) | Kd (HLA-A*69:01 [6]; [22]) | Kd (HLA-A*02:01 [13]; [22]) | Kd (HLA-B*18:01 [9]; [22]) | Kd (HLA-A*02:19; [22]) | Kd (HLA-A*02:03; [22]) | Kd (HLA-A*02:12; [22]) | Kd (HLA-A*68:02; [22]) | Kd (HLA-A*03:01; [22]) | Kd (HLA-A*02:16; [22])
0.306 µM: Kd (HLA-C*12:03)

ISSGETRSF
3.6 µM: Kd (HLA-B*15:01 [14])
0.351 µM: Kd (HLA-B*58:01 [12]; [22])
≥ 20 µM: Kd (HLA-A*26:01; [22]) | Kd (HLA-B*39:01; [22]) | Kd (HLA-B*51:01; [22]) | Kd (HLA-B*57:01 [5]; [22]) | Kd (HLA-B*27:03; [22]) | Kd (HLA-A*69:01 [6]; [22]) | Kd (HLA-A*02:01 [13]; [22]) | Kd (HLA-B*46:01 [8]; [22]) | Kd (HLA-B*18:01 [9]; [22]) | Kd (HLA-A*02:19; [22]) | Kd (HLA-A*02:03; [22]) | Kd (HLA-A*02:12; [22]) | Kd (HLA-A*68:02; [22]) | Kd (HLA-A*03:01; [22]) | Kd (HLA-A*29:02; [22]) | Kd (HLA-A*02:11) | Kd (HLA-A*02:16; [22])

IYQARFMKY
≥ 20 µM: Kd (HLA-A*69:01 [15]; source organism: Burkholderia mallei)
0.0008 µM: Kd (HLA-A*24:03 [1]; source organism: Pseudomonas aeruginosa PACS2)

KSAFYQSYL
≥ 20 µM: Kd (HLA-A*26:01; [24]) | Kd (HLA-B*39:01; [24]) | Kd (HLA-B*27:03; [24]) | Kd (HLA-A*69:01 [6]; [24]) | Kd (HLA-B*15:01 [7]; [24]) | Kd (HLA-B*46:01 [8]; [24]) | Kd (HLA-B*18:01 [9]; [24]) | Kd (HLA-A*02:19; [25]) | Kd (HLA-A*02:12; [25]) | Kd (HLA-A*03:01; [25]) | Kd (HLA-A*29:02; [25]) | Kd (HLA-A*02:16; [25])
0.0021 µM: Kd (HLA-B*58:01 [12]; [24])

LYVAGVPEL
0.0003 µM: Kd (HLA-A*24:03 [1]; [26])
≥ 20 µM: Kd (HLA-A*26:01; [26]) | Kd (HLA-B*39:01; [26]) | Kd (HLA-B*15:17 [4]; [26]) | Kd (HLA-B*51:01; [26]) | Kd (HLA-B*57:01 [5]; [26]) | Kd (HLA-B*27:03; [26]) | Kd (HLA-A*69:01 [6]; [26]) | Kd (HLA-A*02:01 [13]; [26]) | Kd (HLA-B*46:01 [8]; [26]) | Kd (HLA-B*18:01 [9]; [26]) | Kd (HLA-A*02:19; [26]) | Kd (HLA-A*02:03; [26]) | Kd (HLA-A*02:12; [26]) | Kd (HLA-A*68:02; [26]) | Kd (HLA-A*03:01; [26]) | Kd (HLA-A*29:02; [26]) | Kd (HLA-A*02:16; [26])

MFSVYDYGF
0.003 µM: Kd (HLA-A*24:03 [10]; [27]) | Kd (HLA-A*23:01; [27])

STVADEIAF
1.78 µM: Kd (HLA-B*58:01 [12]; source organism: Escherichia coli E22)

VTECKLIYY
0.0347 µM: Kd (HLA-B*15:17 [17])
1.26 µM: Kd (HLA-A*11:01)
0.007 µM: Kd (HLA-A*01:01)
≥ 20 µM: Kd (HLA-B*15:01 [7]; source organism: Bacillus anthracis str. A0389) | Kd (HLA-B*40:01) | Kd (HLA-B*08:01 [16]) | Kd (HLA-B*48:01) | Kd (HLA-B*58:01 [18]) | Kd (HLA-A*03:01; [28]) | Kd (HLA-B*57:01 [19]) | Kd (HLA-B*27:05) | Kd (HLA-A*69:01 [15]; [28]) | Kd (HLA-A*31:01) | Kd (HLA-A*02:01 [11]; [28]) | Kd (HLA-B*46:01 [20]) | Kd (HLA-B*18:01 [21])
